US20130236458A1 (AbbVie / Abbott, published 2013)
One block for each binder: values may come before it.

Legend:
[1] = molecular target: T1, Recombinant Human IL-17 (human, UniProt Q16552 20-155, limits assumed); assay: cell-based or functional assay
T1 sequence (looked up): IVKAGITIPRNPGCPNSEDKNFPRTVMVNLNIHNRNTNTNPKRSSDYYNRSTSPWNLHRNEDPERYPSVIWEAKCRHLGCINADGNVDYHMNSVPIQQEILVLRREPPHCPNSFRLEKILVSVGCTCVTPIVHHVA

[2] = molecular target: T2, Recombinant Human IL-13 (human, UniProt P35225 35-146, limits assumed); assay: cell-based or functional assay
T2 sequence (P35225 35-146 limits assumed): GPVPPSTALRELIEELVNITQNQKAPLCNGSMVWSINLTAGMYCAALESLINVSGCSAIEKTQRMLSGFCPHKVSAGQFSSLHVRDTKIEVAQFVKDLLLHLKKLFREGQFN

[3] = molecular target: T1, Recombinant Human IL-17; assay: SPR (Biacore)
How it was run: (§1)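 Antibodies or DVD-Ig captured on anti-mouse IgG (Fcγ) CM5 surface; antigen injected at 10–200 nM in HBS-EP, pH 7.4, 25 °C, 25 µL/min. kon and koff from global 1:1 Langmuir fit; KD = koff/kon.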

[4] = molecular target: T2, Recombinant Human IL-13; assay: SPR (Biacore)
How it was run: as §1

B1: DVD2191 (bispecific antibody)
VH: EVQLVQSGAEVKKPGSSVKVSCKASGGSFGGYGIGWVRQAPGQGLEWMGGITPFFGFADYAQKFQGRVTITADESTTTAYMELSGLTSDDTAVYYCARDPNEFWNGYYSTHDFDSWGQGTTVTVSSASTKGPEVQLVQSGAEVKKPGASVKVSCKASGYTFTSYWMHWVRQAPGQGLEWIGNINPKGGSNIYNEKFQGRVTMTRDTSISTAYMELSRLRSDDTAVYYCARLDYFGDSFDLWGQGTTVTVSS
VL: EIVLTQSPDFQSVTPKEKVTITCRASQDIGSELHWYQQKPDQPPKLLIKYASHSTSGVPSRFSGSGSGTDFTLTINGLEAEDAGTYYCHQTDSLPYTFGPGTKVDIKRTVAAPDIQMTQSPSSLSASVGDRVTITCRASQGIRNYLNWYQQKPGKAPKLLIYYASNLEVGVPSRFSGSGSGTDYTLTISSLQPEDFATYYCQQDNRFPYTFGGGTKVEIKR
notes: DVD-Ig; also called DVD2191H; DVD2191L
N-Terminal VD IL17 Neutralization Assay IC50 [1]: 0.013 nM | C-Terminal VD IL13 Neutralization Assay IC50 [2]: 0.165 nM | Kd [3]: 0.0046 nM | koff [3]: 1.2e-05 s⁻¹ | kon [3]: 2.5e+06 M⁻¹ s⁻¹ | Kd [4]: 0.17 nM | koff [4]: 4.4e-05 s⁻¹ | kon [4]: 260000 M⁻¹ s⁻¹

B2: DVD2179 (bispecific antibody)
VH: EVQLVQSGAEVKKPGESVKISCKASGGSFRSYGISWVRQAPGQGLEWMGGITHFFGITDYAQKFQGRVTITADESTTTAYMELSGLTSDDTAVYYCAREPNDFWNGYYDTHDFDSWGQGTTVTVSSASTKGPEVQLVQSGAEVKKPGASVKVSCKASGYTFTTYGVSWVRQAPGQGLEWMGEIYPGNYNTYYNEKFRGRVTMTTDTSTSTAYMELRSLRSDDTAVYYCARWRTSYFSDYGYFDYWGQGTTVTVSS
VL: EIVLTQSPDFQSVTPKEKVTITCRASQNIGSELHWYQQKPDQSPKLLIKYASHSISGVPSRFSGSGSGTDFTLTINGLEAEDAATYYCHQSDTLPHTFGQGTKVDIKRTVAAPDVVMTQSPLSLPVTLGQPASISCRSSQSLVHSHGNTYLHWYQQRPGQSPRLLIYTVSNRFSGVPDRFSGSGSGTDFTLKISRVEAEDVGVYYCSQSTHVPYTFGGGTKVEIKR
notes: DVD-Ig; also called DVD2179H; DVD2179L
N-Terminal VD IL17 Neutralization Assay IC50 [1]: 0.0097 nM | C-Terminal VD IL13 Neutralization Assay IC50 [2]: 0.916 nM | Kd [3]: 0.039 nM | koff [3]: 6.4e-05 s⁻¹ | kon [3]: 1.7e+06 M⁻¹ s⁻¹ | Kd [4]: ≤ 0.0036 nM | koff [4]: ≤ 1e-06 s⁻¹ | kon [4]: 280000 M⁻¹ s⁻¹

B3: DVD2183 (bispecific antibody)
VH: EVQLVQSGAEVKKPGESVKISCKASGGSFRSYGISWVRQAPGQGLEWMGGITHFFGITDYAQKFQGRVTITADESTTTAYMELSGLTSDDTAVYYCAREPNDFWNGYYDTHDFDSWGQGTTVTVSSASTKGPSVFPLAPEVQLVQSGAEVKKPGASVKVSCKASGYTFTTYGVSWVRQAPGQGLEWMGEIYPGNYNTYYNEKFRGRVTMTTDTSTSTAYMELRSLRSDDTAVYYCARWRTSYFSDYGYFDYWGQGTTVTVSS
VL: B2 VL
notes: DVD-Ig; also called DVD2183H; DVD2183L
N-Terminal VD IL17 Neutralization Assay IC50 [1]: 0.0125 nM | C-Terminal VD IL13 Neutralization Assay IC50 [2]: 0.086 nM | Kd [3]: 0.015 nM | koff [3]: 3.6e-05 s⁻¹ | kon [3]: 2.3e+06 M⁻¹ s⁻¹ | Kd [4]: < 0.0042 nM | koff [4]: < 1e-06 s⁻¹ | kon [4]: 240000 M⁻¹ s⁻¹

B4: DVD2181 (bispecific antibody)
VH: B2 VH
VL: EIVLTQSPDFQSVTPKEKVTITCRASQNIGSELHWYQQKPDQSPKLLIKYASHSISGVPSRFSGSGSGTDFTLTINGLEAEDAATYYCHQSDTLPHTFGQGTKVDIKRTVAAPSVFIFPPDVVMTQSPLSLPVTLGQPASISCRSSQSLVHSHGNTYLHWYQQRPGQSPRLLIYTVSNRFSGVPDRFSGSGSGTDFTLKISRVEAEDVGVYYCSQSTHVPYTFGGGTKVEIKR
notes: DVD-Ig; also called DVD2181H; DVD2181L
N-Terminal VD IL17 Neutralization Assay IC50 [1]: 0.0097 nM | C-Terminal VD IL13 Neutralization Assay IC50 [2]: 0.04 nM | Kd [3]: 0.016 nM | koff [3]: 4.2e-05 s⁻¹ | kon [3]: 2.6e+06 M⁻¹ s⁻¹ | Kd [4]: < 0.012 nM | koff [4]: < 1e-06 s⁻¹ | kon [4]: 82000 M⁻¹ s⁻¹

B5: DVD2190 (bispecific antibody)
VH: EVQLVQSGAEVKKPGASVKVSCKASGYTFTSYWMHWVRQAPGQGLEWIGNINPKGGSNIYNEKFQGRVTMTRDTSISTAYMELSRLRSDDTAVYYCARLDYFGDSFDLWGQGTTVTVSSASTKGPEVQLVQSGAEVKKPGSSVKVSCKASGGSFGGYGIGWVRQAPGQGLEWMGGITPFFGFADYAQKFQGRVTITADESTTTAYMELSGLTSDDTAVYYCARDPNEFWNGYYSTHDFDSWGQGTTVTVSS
VL: DIQMTQSPSSLSASVGDRVTITCRASQGIRNYLNWYQQKPGKAPKLLIYYASNLEVGVPSRFSGSGSGTDYTLTISSLQPEDFATYYCQQDNRFPYTFGGGTKVEIKRTVAAPEIVLTQSPDFQSVTPKEKVTITCRASQDIGSELHWYQQKPDQPPKLLIKYASHSTSGVPSRFSGSGSGTDFTLTINGLEAEDAGTYYCHQTDSLPYTFGPGTKVDIKR
notes: DVD-Ig; also called DVD2190H; DVD2190L
C-Terminal VD IL17 Neutralization Assay IC50 [1]: 0.061 nM | N-Terminal VD IL13 Neutralization Assay IC50 [2]: 0.087 nM | Kd [3]: 0.038 nM | koff [3]: 3.4e-06 s⁻¹ | kon [3]: 89000 M⁻¹ s⁻¹ | Kd [4]: 0.021 nM | koff [4]: 5.7e-05 s⁻¹ | kon [4]: 2.6e+06 M⁻¹ s⁻¹

B7: DVD2185 (bispecific antibody)
VH: EVQLVQSGAEVKKPGSSVKVSCKASGYTFTDYEIHWVRQAPGQGLEWMGVNDPESGGTFYNQKFDGRVTLTADESTSTAYMELSSLRSEDTAVYYCTRYSKWDSFDGMDYWGQGTTVTVSSASTKGPEVQLVQSGAEVKKPGASVKVSCKASGYTFTSYWMHWVRQAPGQGLEWIGNINPKGGSNIYNEKFQGRVTMTRDTSISTAYMELSRLRSDDTAVYYCARLDYFGDSFDLWGQGTTVTVSS
VL: DIQMTQSPSSLSASVGDRVTITCRASSGIISYIDWFQQKPGKAPKRLIYATFDLASGVPSRFSGSGSGTDYTLTISSLQPEDFATYYCRQVGSYPETFGQGTKLEIKRTVAAPDIQMTQSPSSLSASVGDRVTITCRASQGIRNYLNWYQQKPGKAPKLLIYYASNLEVGVPSRFSGSGSGTDYTLTISSLQPEDFATYYCQQDNRFPYTFGGGTKVEIKR
notes: DVD-Ig; also called DVD2185H; DVD2185L
N-Terminal VD IL17 Neutralization Assay IC50 [1]: 0.0013 nM | C-Terminal VD IL13 Neutralization Assay IC50 [2]: 1.25 nM | Kd [3]: 0.0089 nM | koff [3]: 1.5e-05 s⁻¹ | kon [3]: 1.7e+06 M⁻¹ s⁻¹ | Kd [4]: < 0.0091 nM | koff [4]: < 1e-06 s⁻¹ | kon [4]: 110000 M⁻¹ s⁻¹

Stronger by Kd [3], values ahead:

C-Terminal VD IL17 Neutralization Assay IC50 [1]: 0.015 nM | N-Terminal VD IL13 Neutralization Assay IC50 [2]: 0.056 nM | Kd [3]: < 0.0038 nM | koff [3]: < 1e-06 s⁻¹ | kon [3]: 260000 M⁻¹ s⁻¹ | Kd [4]: 0.035 nM | koff [4]: 5.1e-05 s⁻¹ | kon [4]: 1.5e+06 M⁻¹ s⁻¹
B6: DVD2192 (bispecific antibody)
VH: B5 VH
VL: DIQMTQSPSSLSASVGDRVTITCRASQGIRNYLNWYQQKPGKAPKLLIYYASNLEVGVPSRFSGSGSGTDYTLTISSLQPEDFATYYCQQDNRFPYTFGGGTKVEIKRTVAAPSVFIFPPEIVLTQSPDFQSVTPKEKVTITCRASQDIGSELHWYQQKPDQPPKLLIKYASHSTSGVPSRFSGSGSGTDFTLTINGLEAEDAGTYYCHQTDSLPYTFGPGTKVDIKR
notes: DVD-Ig; also called DVD2192H; DVD2192L

N-Terminal VD IL17 Neutralization Assay IC50 [1]: 0.0016 nM | C-Terminal VD IL13 Neutralization Assay IC50 [2]: 0.811 nM | Kd [3]: < 0.00038 nM | koff [3]: < 1e-06 s⁻¹ | kon [3]: 2.6e+06 M⁻¹ s⁻¹ | Kd [4]: 0.072 nM | koff [4]: 2.1e-05 s⁻¹ | kon [4]: 290000 M⁻¹ s⁻¹
B8: DVD2187 (bispecific antibody)
VH: B7 VH
VL: DIQMTQSPSSLSASVGDRVTITCRASSGIISYIDWFQQKPGKAPKRLIYATFDLASGVPSRFSGSGSGTDYTLTISSLQPEDFATYYCRQVGSYPETFGQGTKLEIKRTVAAPSVFIFPPDIQMTQSPSSLSASVGDRVTITCRASQGIRNYLNWYQQKPGKAPKLLIYYASNLEVGVPSRFSGSGSGTDYTLTISSLQPEDFATYYCQQDNRFPYTFGGGTKVEIKR
notes: DVD-Ig; also called DVD2187H; DVD2187L

N-Terminal VD IL17 Neutralization Assay IC50 [1]: 0.0017 nM | C-Terminal VD IL13 Neutralization Assay IC50 [2]: 0.172 nM | Kd [3]: < 0.0004 nM | koff [3]: < 1e-06 s⁻¹ | kon [3]: 2.5e+06 M⁻¹ s⁻¹ | Kd [4]: 0.094 nM | koff [4]: 3.9e-05 s⁻¹ | kon [4]: 410000 M⁻¹ s⁻¹
B9: DVD2189 (bispecific antibody)
VH: EVQLVQSGAEVKKPGSSVKVSCKASGYTFTDYEIHWVRQAPGQGLEWMGVNDPESGGTFYNQKFDGRVTLTADESTSTAYMELSSLRSEDTAVYYCTRYSKWDSFDGMDYWGQGTTVTVSSASTKGPSVFPLAPEVQLVQSGAEVKKPGASVKVSCKASGYTFTSYWMHWVRQAPGQGLEWIGNINPKGGSNIYNEKFQGRVTMTRDTSISTAYMELSRLRSDDTAVYYCARLDYFGDSFDLWGQGTTVTVSS
VL: B7 VL
notes: DVD-Ig; also called DVD2189H; DVD2189L
